Source: patent US20130202618A1

Assays:
[1] = biological target: C. difficile toxin A from strain Pitt 07 (ribotype 078) (Clostridium difficile strain Pitt 07); assay: cell-based or functional assay
[2] = biological target: C. difficile toxin B from strain CCL678 (ribotype 027, BI/NAP1/027) (Clostridium difficile strain CCL678); assay: cell-based or functional assay

With “comparator human anti-toxin A monoclonal antibody CDA-1” the EC50, neutralization of supernatant cytotoxicity on T-84 cells [1] was over 100 nM.

In the case of “comparator human anti-toxin B monoclonal antibody CDB-1”, the EC50, neutralization of supernatant cytotoxicity on CHO-K1 cells [2] is reported as over 100 nM.
